Source: publication PMC7762956 (The Journal of Biological Chemistry, 2020)

Target: the molecule itself
Assay: SEC

Protein	stoichiometry N
murine Ifit1b with a C-terminal His8 tag (natural protein) MEQLLSPSNMSEESHKSHIHDSLDELRCHFTWELDIKDKHIHDLEIKISETEFRDPIYSIGMHNLLAYVRHLKGQQDEALQSLKEAEALIQSEQLSKRSLATWGNCAWLHYHRGSLAEAQVYLDKVEKVCKEFSSPFRYRLECAEMDCEEGWALRKCGSQNYTRAMACFERALKVEPENPEYNAGYADVAYHLDYYDGNSLQPLKKAVSVKPEDPYLKVLLALKLQDLRKTDEAEKHIKEATLTISSQNNIFGYVAKFYRRKGCVEEALGFLKKALETKPSSPYLHFQIGLCHKTQFFQMKKATSRENRKRADQSCHLAICHFKKTLELKPTYDRAYIDLAEVYAKNHQQKEAEDNFQEVLSMSNLGDYMQQEIHFRYGNFQQYYKKSEEAAITHYLKGLKIEVTSHYRDKLLKALEELAEGRKEDHVLESLSLLGLVCRLRGDTSEAMSCYEKALRLTGAVNPEF	2
murine Ifit1 with a C-terminal His8 tag (natural protein) MGENADGDQVMENLLQLRCHFTWKLLFENNDIPDLEVRISEQVQFLDIKNPLGMHNLLAYVRHLKGQQDEALQSLKEAEALIQSEQLSKRSLATWGNCAWLHYHRGSLAEAQIYLDKVEKVCKEFSSPFRYRLECAEMDCEEGWALLKCGGGNYKQAMACFAKALKVEPENPEYNTGYAVVAYRQDLDDNFISLEPLRKAVRLNPEDPYLKVLLALKLQDLGEHVEAEAHIEEALSSTSCQSYVIRYAAKYFRRKHRVDKALHLLNRALQASPSSGYLHYQKGLCYKQQISQLRTSRNRQPRRQDNVQELAQQAIHEFQETLKLRPTFEMAYVCMAEVQAEIHQYEEAERNFQKALNNKTLVAHIEQDIHLRYGRFLQFHKQSEDKAITLYLKGLKVEEKSFAWRKLLTALEKVAERRVCQNVHLVESTSLLGLVYKLKGQEKNALFYYEKALRLTGEMNPAF	2
